According to PMC314469, “Protein Interaction Networks by Proteome Peptide Scanning” (PLoS Biology, 2004):

T1: amphyphisin SH3 (AMPH_HUMAN), P49418
T1 chain: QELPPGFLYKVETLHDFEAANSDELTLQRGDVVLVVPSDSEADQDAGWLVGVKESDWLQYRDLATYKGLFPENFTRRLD


What was measured:
[1] = target: endophilin SH3 (SH3G2_HUMAN), Q99962; test: SPOT array
[2] = target: T1, amphyphisin SH3 (AMPH_HUMAN), P49418; test: SPOT array

normalised SPOT signal, Boehringer light units (BLU); mean over the file's lines of this peptide [1]	normalised SPOT signal, Boehringer light units (BLU); mean over the file's lines of this peptide [2]	Binder
10900	1520	KPQPPARPPPPVLP [Q9UKL5 750-764]
148	79.4	KQYMLRRPALEDYV [Q9NWS7 207-220]
55.2	5.2	KQASLKRPPTAGAQ [Q9UBC5 553-566]
52.2	9	KPQTIKRPLNPLAS [Q9UKV6 127-140]
1760	226	KPVSPRRPWSPSKE [Q9HCL7 1184-1197]
55.4	23.6	ANLQPKRPKTIKQR [Q9NXX2 8-21]
30.7	57.1	KPRQIKRPLEDAIE [Q9UNI5 8-21]
20.7	12.4	KRIKLRRPRVSKQR [Q96FU1 26-39]
46000	8020	KPSRPPRPSRPPPP [O43584 85-98]
175	109	KRKKPSRPAKTRKR [Q9UNZ9 85-98]
2490	60.3	KRGRPGRPPSTNKK [O00539 35-49]
16900	3550	KPPKPPKPPRPPKT [Q9Y6N4 506-520]
125	147	KQVSPRRPQATEAV [Q9Y3H2 190-203]
22.5	57.4	KRKKFKRPPQRLFD [O00267 328-341]
8740	14200	ANPPPKRPVRASSR [Q9HCK1 771-784]
9220	2580	KPQRPRRPASPIST [P07360 22-35]
25300	1290	KPPKPPRPPKTLKL [Q9Y6N4 509-523]
